Assay results published in article PMC10200060, “Inhibition of DAMP actions in the tumoral microenvironment using lactoferrin-glycyrrhizin conjugate for glioblastoma therapy” (Biomaterials Research, 2023).

Target: T1, human recombinant HMGB1 protein (Homo sapiens, UniProt P09429)
T1 construct: purchased Abcam
T1 sequence (P09429 1-215): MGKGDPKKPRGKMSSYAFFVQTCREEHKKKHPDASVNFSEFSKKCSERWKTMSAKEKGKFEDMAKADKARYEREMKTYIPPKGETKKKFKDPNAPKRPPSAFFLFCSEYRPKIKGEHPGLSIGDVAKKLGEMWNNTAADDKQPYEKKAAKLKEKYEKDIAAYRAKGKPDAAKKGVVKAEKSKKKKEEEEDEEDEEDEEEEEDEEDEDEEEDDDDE
Assay: SPR binding affinity against HMGB1
Procedure: To confirm the binding affinity of Lf-GL to HMGB1, Surface Plasmon Resonance (SPR) was conducted at WoojungBSC (Korea). The Reichert SR7500DC system (Reichert technologies, NA, USA) and Scrubber2 software (Biologic software, FRA) were used, and a CMDH chip (Cat #: 13,206,066, Reichert technologies) was used for immobilization of the human recombinant HMGB1 protein (Abcam). HMGB1 protein was used as a ligand, and the analytes were HMGB1 antibody (Abcam), GL, Lf and Lf-GL conjugate. The immobilization buffer was S.A. (10 × 10^–3 M, pH 4.5), and the running buffer was PBS (pH 7.4). The flow rate of the analyte was 30 μL min^−1. The association and dissociation time were 3 min each, and measurements were conducted at room temperature. Results are expressed in response units (RU) over time.
Fig. S5. Binding affinity against HMGB1. Surface Plasmon Resonance (SPR) was conducted at WoojungBSC (Korea). The Reichert SR7500DC system (Reichert technologies, NA, USA) and Scrubber2 software(Biologic software, FRA) were used and the CMDH chip (Cat #: 13206066, Reichert technologies) was used for immobilization of the human recombinant HMGB1 protein (Abcam). HMGB1 protein was used as ligand and analytes were HMGB1 antibody (Abcam), GL, Lf and Lf-GL conjugate. Immobilization buffer was 10 mM S.A. (pH 4.5) and running buffer was 1× PBS. The flow rate of the analyte was 30 μL min^-1. The association and dissociation time were 3 min each and conducted at room temperature. Results are expressed in response units (RU) over time.

[1] = SPR, HMGB1 immobilized, PBS pH 7.4, room temperature

B1: Lf-GL: lactoferrin-glycyrrhizin conjugate with ligation ratio Lf:GL 1:10, used in further experiments (conjugate, UniProt P24627 20-708, looked up)
Lactotransferrin: APRKNVRWCTISQPEWFKCRRWQWRMKKLGAPSITCVRRAFALECIRAIAEKKADAVTLDGGMVFEAGRDPYKLRPVAAEIYGTKESPQTHYYAVAVVKKGSNFQLDQLQGRKSCHTGLGRSAGWIIPMGILRPYLSWTESLEPLQGAVAKFFSASCVPCIDRQAYPNLCQLCKGEGENQCACSSREPYFGYSGAFKCLQDGAGDVAFVKETTVFENLPEKADRDQYELLCLNNSRAPVDAFKECHLAQVPSHAVVARSVDGKEDLIWKLLSKAQEKFGKNKSRSFQLFGSPPGQRDLLFKDSALGFLRIPSKVDSALYLGSRYLTTLKNLRETAEEVKARYTRVVWCAVGPEEQKKCQQWSQQSGQNVTCATASTTDDCIVLVLKGEADALNLDGGYIYTAGKCGLVPVLAENRKSSKHSSLDCVLRPTEGYLAVAVVKKANEGLTWNSLKDKKSCHTAVDRTAGWNIPMGLIVNQTGSCAFDEFFSQSCAPGADPKSRLCALCAGDDQGLDKCVPNSKEKYYGYTGAFRCLAEDVGDVAFVKNDTVWENTNGESTADWAKNLNREDFRLLCLDGTRKPVTEAQSCHLAVAPNHAVVSRSDRAAHVKQVLLHQQALFGKNGKNCPDKFCLFKSETKNLLFNDNTECLAKLGGRPTYEEYLGTEYVTAIANLKKCSTSPLLEACAFLTR
modifications: glycyrrhizin conjugate
In the case of B1, the “KD, equilibrium dissociation constant (KD = Kd Ka^−1)” value (SPR, HMGB1 immobilized) is reported as 23.1 ± 0.1 nM, the “Ka, association rate constant” value [1] is reported as “(2.64±0.01)·10^4 M^-1s^-1” and the “Kd, dissociation rate constant” value [1] is reported as “(3.11±0.02)·10^-4 M^-1s^-1”. For the same molecule, the “Affinity for HMGB1 higher than that of HMGB1 antibody” value (ratio of KD values) was 45 fold.
